Reference: publication PMC6821881, “Development of a Potent and Protective Germline-Like Antibody Lineage Against Zika Virus in a Convalescent Human” (Frontiers in Immunology, 2019)
Changes are numbered by the printed parent chain. In names and notes the source's numbering stands.

B1: 2H-6 (antibody, V domains shown)
VH: EVQLVQSGAEVKKPGASVKVSCKASGYTFTSYDVNWVRQATGQGLEWMGWLNPNSGNTGYAEKFQGRVTMTRNTSISTAYMELSSLRSEDTAVYYCARVSSGSYYGSYYYYYYGMDVWGQGTTVTVSS
VL: SYELTQPPSASGTPGQRVTISCSGSSSNIGNNYVHWYQQLPGSAPKLLIYRNNQRPSGVPDRFSGSKSGTSGSLAISGLRSEDEADYYCASWDDSLSGHWVFGGGTKVTVL
notes: also called ZK2B10 heavy chain somatic variant 2H-6; source: HEK 293T, transiently co-transfected, purified from supernatant (protein A agarose)
B2: 2H-9 (antibody, V domains shown)
VH: B1 VH with A9G, E10K, K12V, K13E, P14L, S31T, V34I, L51M, E62Q
VL: B1 VL
notes: also called ZK2B10 heavy chain somatic variant 2H-9; source: HEK 293T, transiently co-transfected, purified from supernatant (protein A agarose)
B3: 2H-15 (antibody, V domains shown)
VH: B1 VH with L51M, E62Q
VL: B1 VL
notes: also called ZK2B10 heavy chain somatic variant 2H-15; source: HEK 293T, transiently co-transfected, purified from supernatant (protein A agarose)
B4: ZK2B10 (antibody, V domains shown)
VH: EVQLVQSGAEVKKPGASVKVSCKASGYTFTSGHTFPSYDINWVRQATGQGLEWMGWMNPNRGNTGYAQKFQGRVTMTRNTSINTAYMELSSLRSEDTAVYYCARVRSGTNYGSYYYYYYGMDVWGQGTTVTVSS
VL: B1 VL
notes: also called WT ZK2B10; wild-type (WT) ZK2B10; source: HEK 293T, transiently co-transfected, purified from supernatant (protein A agarose)
B5: 2H-5 (antibody, V domains shown)
VH: B1 VH with E1Q, K19N, S31M, V34I, A40T, L51M, E62Q
VL: B1 VL
notes: also called ZK2B10 heavy chain somatic variant 2H-5; source: HEK 293T, transiently co-transfected, purified from supernatant (protein A agarose)
B6: 2H-10 (antibody, V domains shown)
VH: B1 VH with E1Q, A9V, K19E, K23Q, Y27I, F29S, V34I, T41N, L51M, E62Q
VL: B1 VL
notes: also called ZK2B10 heavy chain somatic variant 2H-10; source: HEK 293T, transiently co-transfected, purified from supernatant (protein A agarose)
B7: 2H-16 (antibody, V domains shown)
VH: B1 VH with E1Q, V34I, L51M, Y60C, E62Q
VL: B1 VL
notes: also called ZK2B10 heavy chain somatic variant 2H-16; source: HEK 293T, transiently co-transfected, purified from supernatant (protein A agarose)
B8: 2H-4 (antibody, V domains shown)
VH: B1 VH with E1Q, A9R, A24G, V34I, T41P, L51M, E62Q, E89G
VL: B1 VL
notes: also called ZK2B10 heavy chain somatic variant 2H-4; source: HEK 293T, transiently co-transfected, purified from supernatant (protein A agarose)
B9: 2L-1 (S31N+A91S) (antibody, V domains shown)
VH: B4 VH
VL: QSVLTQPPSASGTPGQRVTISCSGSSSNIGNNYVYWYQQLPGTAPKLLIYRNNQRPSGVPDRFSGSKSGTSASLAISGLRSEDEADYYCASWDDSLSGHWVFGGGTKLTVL
notes: also called double mutation (S31N+A91S) into 2L-1; source: HEK 293T, transiently co-transfected, purified from supernatant (protein A agarose)

Tests used:
ZIKV E protein (GZ01) = molecular target: T1, ZIKV E protein (GZ01) (Zika virus, isolate GZ01 (KU820898)); experiment: ELISA; E protein or E DIII protein captured separately onto ELISA plates overnight at 4°C; each mAb (full-length IgG) serially diluted and applied; detected with anti-human IgG-HRP and TMB; EC50 by dose-response stimulation model; conditions: both partners purified
T1 construct: also called full-length E; surface envelope glycoprotein (E); source: E. coli BL21 (RIL), pET28a, IPTG-induced; inclusion bodies solubilized and re-folded

[1] = molecular target: T2, ZIKV E DIII protein (residues 301-403) (Zika virus, isolate GZ01 (KU820898)); experiment: as above; conditions: both partners purified
T2 construct: source: E. coli BL21 (RIL), pET28a, IPTG-induced; inclusion bodies solubilized and re-folded

Binder | binding result (ZIKV E protein (GZ01)) | binding result [1]
B1 | binds | binds
B2 | binds | binds
B3 | binds | binds
B4 | – | binds
B5 | binds | binds
B6 | binds | binds
B7 | binds | binds
B8 | binds | binds
B9 | binds | binds
